Reference: patent publication US20100310635A1, “Compositions and Methods for Regulating T-Cell Activity” (priority 2007, published 2010)
Substitutions are numbered along the chain they refer to. “Also recorded” adds a separate entry of the source.

B1: WT-Foxp3: wild-type mouse Foxp3, 429-aa, retrovirally expressed in CD4+ T cells (protein)
chain: MPNPRPAKPMAPSLALGPSPGVLPSWKTAPKGSELLGTRGSGGPFQGRDLRSGAHTSSSLNPLPPSQLQLPTVPLVMVAPSGARLGPSPHLQALLQDRPHFMHQLSTVDAHAQTPVLQVRPLDNPAMISLPPPSAATGVFSLKARPGLPPGINVASLEWVSREPALLCTFPRSGTPRKDSNLLAAPQGSYPLLANGVCKWPGCEKVFEEPEEFLKHCQADHLLDEKGKAQCLLQREVVQSLEQQLELEKEKLGAMQAHLAGKMALAKAPSVASMDKSSCCIVATSTQGSVLPAWSAPREAPDGGLFAVRRHLWGSHGNSSFPEFFHNMDYFKYHNMRPPFTYATLIRWAILEAPERQRTLNEIYHWFTRMFAYFRNHPATWKNAIRHNLSLHKCFVRVESEKGAVWTVDEFEFRKKRSQRPNKCSNPCP
B2: QNKR--: 429-aa Foxp3 with RKKR replaced by QNKR, intact C-terminal tail resistant to proteolytic cleavage (protein, UniProt Q99JB6 1-429, looked up, variant R414Q K415N)
Forkhead box protein P3: B1 chain with R414Q, K415N
B3: double-cleaved Foxp3: engineered Foxp3 lacking N-terminal 51-aa and C-terminal tail (366-aa) (protein)
chain: SGAHTSSSLNPLPPSQLQLPTVPLVMVAPSGARLGPSPHLQALLQDRPHFMHQLSTVDAHAQTPVLQVRPLDNPAMISLPPPSAATGVFSLKARPGLPPGINVASLEWVSREPALLCTFPRSGTPRKDSNLLAAPQGSYPLLANGVCKWPGCEKVFEEPEEFLKHCQADHLLDEKGKAQCLLQREVVQSLEQQLELEKEKLGAMQAHLAGKMALAKAPSVASMDKSSCCIVATSTQGSVLPAWSAPREAPDGGLFAVRRHLWGSHGNSSFPEFFHNMDYFKYHNMRPPFTYATLIRWAILEAPERQRTLNEIYHWFTRMFAYFRNHPATWKNAIRHNLSLHKCFVRVESEKGAVWTVDEFEFRKKR
B4: C-cleaved PNNW mutant: short 417-aa Foxp3 in which the last four amino acids RKKR are replaced with PNNW (protein, UniProt Q99JB6 1-417, looked up, variant R414P K415N K416N R417W)
chain: MPNPRPAKPMAPSLALGPSPGVLPSWKTAPKGSELLGTRGSGGPFQGRDLRSGAHTSSSLNPLPPSQLQLPTVPLVMVAPSGARLGPSPHLQALLQDRPHFMHQLSTVDAHAQTPVLQVRPLDNPAMISLPPPSAATGVFSLKARPGLPPGINVASLEWVSREPALLCTFPRSGTPRKDSNLLAAPQGSYPLLANGVCKWPGCEKVFEEPEEFLKHCQADHLLDEKGKAQCLLQREVVQSLEQQLELEKEKLGAMQAHLAGKMALAKAPSVASMDKSSCCIVATSTQGSVLPAWSAPREAPDGGLFAVRRHLWGSHGNSSFPEFFHNMDYFKYHNMRPPFTYATLIRWAILEAPERQRTLNEIYHWFTRMFAYFRNHPATWKNAIRHNLSLHKCFVRVESEKGAVWTVDEFEFPNNW
B5: QNKR•: short 417-aa Foxp3 mutant without C-terminal tail, terminating with QNKR (protein, UniProt Q99JB6 1-417, looked up, variant R414Q K415N)
chain: B4 chain with P414Q, N416K, W417R

Experiments:
RAG−/− (C57BL/6) mice = assay: Adoptive transfer model of IBD; assay type: in vivo, mouse; conditions: for weight loss: 1×10^5 transduced Thy1.1+CD4+ cells plus 1×10^6 CD4+CD25− Teff cells i.p., weights monitored for 45 days; for histology of duodenal sections: duodenal samples collected at day 45, H&E
Text: Adoptive transfer model of IBD—CD4+CD25− T cells were isolated from mesenteric lymph nodes using magnetic beads (Miltenyi) to >95% purity (by flow cytometry). CD4+CD25− T cells (1×10^6 cells) were co-injected i.p. into RAG1−/− (C57BL/6) mice along with Thy1.1+CD4+CD25− cells transduced with WT or mutated Foxp3 ([…]). Mice were monitored biweekly for clinical evidence of disease, including weight loss and stool consistency. RAG1−/− mice on the C57BL/6 background were purchased from Taconic Laboratory. Mice were housed in specific pathogen-free conditions, and used for studies approved by the institutional animal care and use committee of the Children's Hospital of Philadelphia.
Pathology—Gut samples were paraffin embedded and stained by H&E, or snap-frozen and stained by immunoperoxidase using mAbs to Foxp3 and T cell subsets (73).
To test the effects of the different Foxp3 mutants in vivo, RAG−/− (C57BL/6) mice were injected with 1×10^5 transduced Thy1.1+CD4+ cells expressing either WT-Foxp3 or a mutant Foxp3 (RKKR• (SEQ ID NO: 179), QNKR• (SEQ ID NO: 180), QNKR-- (SEQ ID NO: 180)) or empty vector (control), plus 1×10^6 CD4+CD25− Teff cells. Additional mice received CD4+CD25− Teff cells alone. The weights of the animals in each group were monitored weekly for 45 days.

[1] = tested on: CD4+CD25− Teff cell proliferation; assay: Suppression assay: suppression of Teff cell proliferation by transduced CD4+ cells expressing Foxp3 forms; assay type: cell-based, mouse; conditions: retrovirally transduced CD4+ cells expressing the Foxp3 form, co-cultured with CFSE-labeled CD4+CD25− T cells, 72 hr
Experimental: Suppression assays—CD4+CD25+ (T-reg) and CD4+CD25− (T-eff) T cell and APC are isolated with magnetic beads following the manufacturer's instructions (Miltenyi). In some cases, 5×10^4 CD4+CD25− T cells were labeled with CFSE and stimulated with CD3 mAb (1 μg/ml) in the presence of irradiated syngeneic APC and varying ratios of activated CD4+ cells that had been transduced with different Foxp3 constructs. […] After 72 hours culture, cells were harvested and CD4+CD25− T cell proliferation was quantified by flow cytometry (Cyan) based on carboxylfluorescein diacetate succininyl ester (CFSE) profile of dividing effector T cells at 72 hr. Absolute numbers of effector T cells were determined by adding equal numbers of Dynabeads to each sample, and during FACS analysis gates were drawn on Dynabeads and collection time was based on set number of bead events for each sample. […]
WT Foxp3 and engineered Foxp3 mutants (N-terminal cleaved, C-terminal cleaved and N -plus C-terminal-cleaved (double-cleaved)) were retrovirally expressed in CD4+ cells and the ability of the transduced cells to suppress Teff cell proliferation was measured.

| Molecule | survival (RAG−/− (C57BL/6) mice; 1×10^5 transduced CD4+ cells plus 1×10^6 CD4+CD25− Teff cells, 45 days) | weight loss (RAG−/− (C57BL/6) mice) | histology of duodenal sections (RAG−/− (C57BL/6) mice) | suppression of Teff cell proliferation [1] |
| --- | --- | --- | --- | --- |
| B1 | survived | minor weight loss; also recorded: benefit | mild cell mononuclear cell infiltration and edema within villi; also recorded: mild mononuclear cell recruitment and villous edema |  |
| B2 |  | did significantly worse | marked mononuclear cell infiltration of villous processes; also recorded: extensive mononuclear cell recruitment |  |
| B3 |  |  |  | suppressed Teff cell proliferation stronger than both WTFoxp3 and N-terminal-cleaved Foxp3 |
| B4 |  |  |  | loss in the suppression ability |
| B5 |  | negligible weight loss; also recorded: significantly more effective in controlling weight loss | minor mononuclear cell infiltration and edema |  |
